# Source: article PMC8430805
# Assays:
# [1] = molecular target: LysB endolysin (putative N-acetylmuramoyl-L-alanine amidase) from the prophage of Clostridium botuli (Clostridium botulinum E3 strain Alaska E43 (prophage)); experiment: AUC
# [2] = molecular target: LysB endolysin (putative N-acetylmuramoyl-L-alanine amidase) from the prophage of Clostridium botuli (Clostridium botulinum E3 strain Alaska E43 (prophage)); experiment: SEC
substance,measurement,setting,value
LysB endolysin (putative N-acetylmuramoyl-L-alanine amidase) from the prophage of Clostridium botuli (enzyme),stoichiometry N,[1],2
same,stoichiometry N,[2],2
